From publication PMC4397538 (2015)

Target: T1, Biotin-BH4-Bcl-XL (Homo sapiens (Human), UniProt Q07817, biotin on the N-terminus (also used without the biotin tag))
T1 chain: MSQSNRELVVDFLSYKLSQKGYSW
Experiment: SPR

B1: GST-tagged IP3R1 domain 3 (mouse IP3R1, a.a. 923-1581) (protein)
chain: SIHGVGELMTQVVLRGGGFLPMTPMAAAPEGNVKQAEPEKEDIMVMDTKLKIIEILQFILNVRLDYRISCLLCIFKREFDESNSQSSETSSGNSSQEGPSNVPGALDFEHIEEQAEGIFGGSEENTPLDLDDHGGRTFLRVLLHLTMHDYPPLVSGALQLLFRHFSQRQEVLQAFKQVQLLVTSQDVDNYKQIKQDLDQLRSIVEKSELWVYKGQGPDEPMDGASGENEHKKTEEGTSKPLKHESTSSYNYRVVKEILIRLSKLCVQESASVRKSRKQQQRLLRNMGAHAVVLELLQIPYEKAEDTKMQEIMRLAHEFLQNFCAGNQQNQALLHKHINLFLNPGILEAVTMQHIFMNNFQLCSEINERVVQHFVHCIETHGRNVQYIKFLQTIVKAEGKFIKKCQDMVMAELVNSGEDVLVFYNDRASFQTLIQMMRSERDRMDENSPLMYHIHLVELLAVCTEGKNVYTEIKCNSLLPLDDIVRVVTHEDCIPEVKIAYINFLNHCYVDTEVEMKEIYTSNHMWKLFENFLVDICRACNNTSDRKHADSILEKYVTEIVMSIVTTFFSSPFSDQSTTLQTRQPVFVQLLQGVFRVYHCNWLMPSQKASVESCIRVLSDVAKSRAIAIPVDLDSQVNNLFLKSHNIVQKTALNWRLSAR
binding result: no binding
